These results are taken from publication PMC2794155.

The target in one data set is MSH2;MSH6 F337A (Saccharomyces cerevisiae;Saccharomyces …, UniProt P25847;Q03834 1-964;1-1242, |F337A). Kind of data set: EMSA. (Mobility shift assays separate free from complexed probe on a gel.)
Data set [1] addresses T1, MSH2;MSH6 (Saccharomyces cerevisiae;Saccharomyces …, UniProt P25847;Q03834 1-964;1-1242, |). Kind of data set: EMSA.
Data set [2] has as its target T2, NHP6A (Saccharomyces cerevisiae RKY3032, UniProt P11632 1-93). In words: EMSA.
The target of another data set is NHP6A;MSH2;MSH6 (Saccharomyces cerevisiae …, UniProt P11632;P25847;Q03834 1-93;1-964;1-1242, ||). In words: EMSA supershift.
NHP6A;MSH2;MSH6, sequence (P11632 whole entry, chain 1 of 3): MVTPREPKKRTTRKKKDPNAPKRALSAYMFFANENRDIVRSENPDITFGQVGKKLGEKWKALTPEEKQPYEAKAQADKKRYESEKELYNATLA
NHP6A;MSH2;MSH6, sequence (P25847 whole entry, chain 2 of 3): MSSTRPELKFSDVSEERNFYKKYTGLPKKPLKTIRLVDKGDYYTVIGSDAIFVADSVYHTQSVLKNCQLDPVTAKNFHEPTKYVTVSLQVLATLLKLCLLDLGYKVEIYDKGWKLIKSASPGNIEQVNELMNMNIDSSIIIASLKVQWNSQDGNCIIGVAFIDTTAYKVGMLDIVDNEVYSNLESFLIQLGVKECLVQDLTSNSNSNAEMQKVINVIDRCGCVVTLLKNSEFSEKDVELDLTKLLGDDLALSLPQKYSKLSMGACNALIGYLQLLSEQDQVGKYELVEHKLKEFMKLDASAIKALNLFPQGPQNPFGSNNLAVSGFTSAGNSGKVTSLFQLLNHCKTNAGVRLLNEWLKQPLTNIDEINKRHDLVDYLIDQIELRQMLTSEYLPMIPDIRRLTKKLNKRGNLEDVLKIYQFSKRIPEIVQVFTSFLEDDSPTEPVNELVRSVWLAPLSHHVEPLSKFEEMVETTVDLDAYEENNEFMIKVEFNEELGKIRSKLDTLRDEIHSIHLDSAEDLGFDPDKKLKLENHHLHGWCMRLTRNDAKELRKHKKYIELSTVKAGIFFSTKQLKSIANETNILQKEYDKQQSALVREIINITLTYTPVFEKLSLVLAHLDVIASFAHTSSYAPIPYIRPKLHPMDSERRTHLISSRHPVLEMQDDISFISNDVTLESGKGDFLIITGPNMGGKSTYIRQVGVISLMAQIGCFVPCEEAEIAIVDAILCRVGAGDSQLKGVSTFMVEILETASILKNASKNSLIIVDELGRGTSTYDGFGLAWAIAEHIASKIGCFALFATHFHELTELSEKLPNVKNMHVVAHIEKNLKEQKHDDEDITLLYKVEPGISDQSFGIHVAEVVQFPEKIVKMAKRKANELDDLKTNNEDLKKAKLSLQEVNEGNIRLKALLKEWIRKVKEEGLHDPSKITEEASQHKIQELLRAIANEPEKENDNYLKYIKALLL
NHP6A;MSH2;MSH6, sequence (Q03834 whole entry, chain 3 of 3): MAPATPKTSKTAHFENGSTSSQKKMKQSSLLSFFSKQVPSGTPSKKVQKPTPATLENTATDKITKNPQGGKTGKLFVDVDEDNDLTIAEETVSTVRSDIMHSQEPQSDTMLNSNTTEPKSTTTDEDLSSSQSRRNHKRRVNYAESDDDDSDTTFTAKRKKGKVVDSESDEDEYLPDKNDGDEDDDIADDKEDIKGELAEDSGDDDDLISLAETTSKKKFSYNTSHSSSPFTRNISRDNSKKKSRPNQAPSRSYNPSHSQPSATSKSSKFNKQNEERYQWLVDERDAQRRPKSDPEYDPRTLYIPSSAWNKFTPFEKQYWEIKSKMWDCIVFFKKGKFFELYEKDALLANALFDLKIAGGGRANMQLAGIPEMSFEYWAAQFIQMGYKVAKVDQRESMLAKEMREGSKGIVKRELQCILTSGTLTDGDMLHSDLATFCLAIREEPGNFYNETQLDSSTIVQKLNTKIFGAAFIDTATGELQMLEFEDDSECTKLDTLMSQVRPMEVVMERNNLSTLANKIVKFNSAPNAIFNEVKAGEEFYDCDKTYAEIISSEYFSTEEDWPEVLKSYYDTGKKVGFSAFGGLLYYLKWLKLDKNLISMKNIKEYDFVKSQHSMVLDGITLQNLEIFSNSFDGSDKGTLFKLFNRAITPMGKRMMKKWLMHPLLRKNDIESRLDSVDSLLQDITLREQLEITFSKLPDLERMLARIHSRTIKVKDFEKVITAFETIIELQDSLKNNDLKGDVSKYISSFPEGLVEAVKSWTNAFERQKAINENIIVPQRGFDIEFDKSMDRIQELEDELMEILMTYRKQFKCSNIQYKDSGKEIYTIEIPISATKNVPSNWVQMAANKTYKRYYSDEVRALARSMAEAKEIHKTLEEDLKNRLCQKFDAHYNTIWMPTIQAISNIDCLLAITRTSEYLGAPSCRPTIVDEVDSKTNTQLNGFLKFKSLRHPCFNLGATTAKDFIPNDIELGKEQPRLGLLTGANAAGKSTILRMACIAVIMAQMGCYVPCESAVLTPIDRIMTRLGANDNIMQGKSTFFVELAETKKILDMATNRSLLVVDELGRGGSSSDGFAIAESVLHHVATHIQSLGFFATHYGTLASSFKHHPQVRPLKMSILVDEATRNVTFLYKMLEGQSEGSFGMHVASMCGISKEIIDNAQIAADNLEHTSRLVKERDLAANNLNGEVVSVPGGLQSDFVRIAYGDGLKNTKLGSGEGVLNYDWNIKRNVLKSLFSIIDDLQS
For data set [3], the target named is T1, MSH2;MSH6. In words: EMSA. This is another data set of the same source.
Data set [4] deals with T2, NHP6A. Kind of data set: EMSA. The source holds these as a separate data set.

Read-outs that look alike come from different tables or passages of the source.

T2 sequence (P11632 whole entry): as the sequence (P11632 whole entry, chain 1 of 3) above
T1 sequence (P25847 whole entry, chain 1 of 2): as the sequence (P25847 whole entry, chain 2 of 3) above
T1 sequence (Q03834 whole entry, chain 2 of 2): as the sequence (Q03834 whole entry, chain 3 of 3) above
MSH2;MSH6 F337A, sequence (P25847 whole entry, chain 1 of 2): as the sequence (P25847 whole entry, chain 2 of 3) above
MSH2;MSH6 F337A, sequence (Q03834 whole entry F337A, chain 2 of 2): as the sequence (Q03834 whole entry, chain 3 of 3) above, with F337A counted along it

B1: 50-mer T:A homoduplex (dsDNA)
DNA 1: CTCATTCAGCATAACTTGATTTCTTTCAGCAGATAGAAACCATACTGATT
DNA 2: AATCAGTATGGTTTCTATCTGCTGAAAGAAATCAAGTTATGCTGAATGAG
As to B1, the binding result with MSH2;MSH6 F337A is “no binding”; with MSH2;MSH6 [1], “binds”; with NHP6A [2], “binds”.

B2: 50-mer T:G heteroduplex (dsDNA)
DNA 1: CTCATTCAGCATAACTTGATTTCTTTCAGCAGATAGAAACCATACTGATT
DNA 2: AATCAGTATGGTTTCTATCTGCTGAAGGAAATCAAGTTATGCTGAATGAG
Regarding B2, the binding result with NHP6A [2], with NHP6A;MSH2;MSH6 and with MSH2;MSH6 [3] was “binds” in each case.

B3: 37-mer G:C homoduplex (A/T in figures) (dsDNA)
DNA 1: ATTTCCTTCAGCAGATAGGAACCATACTGATTCACAT
DNA 2: ATGTGAATCAGTATGGTTCCTATCTGCTGAAGGAAAT
Consider B3, for which, in the data set with NHP6A [4], the binding result is given as “binds”.

B4: 37-mer G:T heteroduplex (dsDNA)
DNA 1: ATTTCCTTCAGCAGATAGGAACCATACTGATTCACAT
DNA 2: ATGTGAATCAGTATGGTTTCTATCTGCTGAAGGAAAT
Consider B4, for which, in the data set with NHP6A [4], the binding result was “binds”.
